Literature values in paper PMC4078514, “A Bombesin-Shepherdin Radioconjugate Designed for Combined Extra- and Intracellular Targeting” (Pharmaceuticals, 2014).

Biological target: Hsp90 (Homo sapiens) (UniProt P07900)

Shepherdin 79-83, sequence (O15392 whole entry, looked up, tested part not stated): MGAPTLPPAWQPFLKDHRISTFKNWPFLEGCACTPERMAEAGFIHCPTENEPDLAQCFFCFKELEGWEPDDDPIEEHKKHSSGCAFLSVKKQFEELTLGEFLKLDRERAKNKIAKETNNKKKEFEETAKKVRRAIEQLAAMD

In the case of Shepherdin 79-83 (from UniProt O15392), the Kd is listed as 80 nM.
